The record followed here is US20260139049A1 (PEDIATRIC IMMUNITY AND HEALTHCARE GUANGZHOU BIOTECHNOLOGY, published 2026).

Assay [1] concerns the target T1, human CLDN6 (human, UniProt P56747 1-220).
T1 construct: whole, on cells; four-transmembrane protein; also called claudin-6; HEK293T-CLDN6
T1 sequence (looked up): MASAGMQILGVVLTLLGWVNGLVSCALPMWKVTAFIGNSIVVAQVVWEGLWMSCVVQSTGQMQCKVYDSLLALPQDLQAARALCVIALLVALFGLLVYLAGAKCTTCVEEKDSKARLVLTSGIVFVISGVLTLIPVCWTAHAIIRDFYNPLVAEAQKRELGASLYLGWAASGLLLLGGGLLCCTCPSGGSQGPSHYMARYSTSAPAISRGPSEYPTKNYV
The assay can be described thus: FACS on PA-1 tumour cells; target on the cells taken as CLDN6. On the procedure: 50 μL of an antibody to be tested was added to a 96-well plate, then 1×10⁵ cells were added to each well, and incubation was conducted at 4° C. for 1 h. Cells were washed three times with PBS. […] Finally, cells were washed three times with PBS, and signals were read using FACS. A binding capacity of the antibody to each tumor cell was analyzed based on detection data.

Assay [2] has as its target T1, human CLDN6. Put plainly: FACS on HEK293T-CLDN6 cells. As to the method: To detect a binding capacity of a chimeric or humanized antibody to CLDN6, a CLDN6-expressing cell line HEK293T-CLDN6 and a CLDN6-negative control cell line HEK293T were washed three times with PBS. 1×10⁵ test cells and 50 μL of an antibody solution to be tested were added to a 96-well plate, and incubated at 4° C. for 1 h. The cells were then washed three times with PBS. […] Finally, cells were washed three times with PBS, and signals were read using FACS.
An EC50 value (a concentration of an antibody that binds to half of binding sites at equilibrium) is calculated through nonlinear regression.

B1: PiH2007 (antibody, human IgG1, kappa, V domains shown)
VH: QVQLVQSGAEVKKPGASVKVSCKASGYTFTDYNMHWVRQAPGQSLEWIGYINPNNGATNYNQKFKGRATITVDTSASTAYMELSSLRSEDTAVYNCARWDGYVYYYGMDYWGQGTLVTVSS
VL: DIQMTQSPSSLSASVGGRVTITCKASDHINNWLAWYQQKPGKAPKLLISGATSLETGVPSRFSGSGSGTDYTFTISSLQPEDIATYYCQQYWNTPYTFGGGTKLEIKR
notes: humanized from 54B5A7; IgG1; also called 54-VH3 + VL4
Broadly, the EC50 is the concentration needed to bring the measured effect to its halfway point. For the molecule B1, the EC50 worked out at 1.17 µg/mL with human CLDN6 [1] and 0.897 µg/mL with human CLDN6 [2].
